Measured values reported in patent US9605080B2, “Antibodies against CD73” (BRISTOL-MYERS SQUIBB COMPANY, priority 2014, dated 2017).

Key:
[1] = molecular target: T1, endogenous CD73 activity in Calu-6 cells (Homo sapiens, UniProt P21589); test: Dual cell line HTRF cAMP assay (Calu-6 and HEK293/A2AR cells); assay type: cell-based; settings: percentage of inhibition compared to 100 nM 11F11 set to 100%
T1 construct: Calu6 (CD73 endogenous expressors; human pulmonary adenocarcinoma cell line); endogenous in cells; host or cells: Calu6 (human pulmonary adenocarcinoma)
T1 sequence (P21589 27-549): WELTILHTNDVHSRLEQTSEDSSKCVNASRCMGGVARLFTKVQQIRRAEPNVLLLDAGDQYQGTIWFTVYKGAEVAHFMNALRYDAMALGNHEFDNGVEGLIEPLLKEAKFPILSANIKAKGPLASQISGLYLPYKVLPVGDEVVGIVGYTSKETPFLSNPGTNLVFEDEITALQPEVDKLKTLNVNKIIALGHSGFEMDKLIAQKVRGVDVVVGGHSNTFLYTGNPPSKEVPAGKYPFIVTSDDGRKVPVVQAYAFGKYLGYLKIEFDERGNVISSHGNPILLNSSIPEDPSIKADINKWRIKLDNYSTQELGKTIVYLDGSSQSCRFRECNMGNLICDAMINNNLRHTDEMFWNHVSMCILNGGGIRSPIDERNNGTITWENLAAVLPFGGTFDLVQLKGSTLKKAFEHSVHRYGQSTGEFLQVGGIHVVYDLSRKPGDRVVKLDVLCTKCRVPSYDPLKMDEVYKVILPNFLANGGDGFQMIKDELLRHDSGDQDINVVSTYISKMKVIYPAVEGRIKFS
Protocol: CD73 antibodies were serial diluted with PBS buffer containing 0.2% BSA, and plated 5 μl/well in 384 well white bottom proxiplate (PerkinElmer, Waltham, Mass.). Calu-6 cells were harvested and resuspend in PBS containing 0.2% BSA, then 5 μl of cells (300 cells/well) were added to the plate. The cells were incubated with antibodies for 10 minutes at 37° C. […] The cells were further incubated with AMP for 30 minutes at 37° C. During this time, HEK293/A2AR cells were harvested and diluted to 0.4 million/ml in PBS containing 0.2% BSA. They were added into the assay plate at 5 μl/well and continued to incubate at 37° C. for 1 hr. HRTF assays were performed using the homogenous time-resolved fluorescence (HTRF) HiRange cAMP detection kit (Cisbio, Bedford, Mass.) by adding 10 μl/well cAMP-conjugated d2 and 10μl/well europium cryptate conjugated anti-cAMP antibody in lysis buffer according to the manufacturer's instructions. Plates were incubated at room temperature for 60 minutes and Fluorescence Resonance Energy Transfer (FRET) signals (665 and 615 nM) were read using an EnVision plate reader (PerkinElmer, Waltham, Mass.). The FRET signal was calculated as the ratio of signal from the 665 nm (acceptor) and 615 nm (donor) channels and multiplied by 10,000. IC50 and Ymax were measured. […] All calculations were determined as a percentage of inhibition compared to this control, which was set to 100%.

[2] = test system: human FcγRs; test: SPR binding to human FcγRs (anti-his Fab captured FcgR-his proteins); settings: 1.0 μM antibody
Protocol: Binding of the constructs to human FcγRs was measured via SPR. hCD64 and hCD32a-H131 binding data for IgG1.1 and IgG2 molecules were consistent with expected values for the different Fcs. IgG1.1f is the most inert Fc.
The binding of antibodies to Fc gamma receptors (FcγRs or FcgRs) was studied using biosensor technologies including Biacore surface plasmon resonance (SPR) and Fortebio Biolayer Interferometry (BLI). SPR studies were performed on a Biacore T100 instrument (GE Healthcare) at 25° C. The Fab fragment from a murine anti-6×His antibody was immobilized on a CM5 sensor chip using EDC/NHS to a density of ˜3000 RU. Various his-tagged FcgRs (7 ug/ml) were captured via the C-terminal his-tag using a contact time of 30 s at 10 ul/min, and the binding of 1.0 μM antibody was evaluated in a running buffer of 10 mM NaPO4, 130 mM NaCl, 0.05% p20 (PBS-T) pH 7.1. FcgRs used for these experiments included CD64 (FcgRI), CD32a-H131 (FcgRIIa-H131), CD32a-R131 (FcgRIIa-R131), CD32b (FcgRIIb), CD16a-V158 (FcgRIIIa-V158), CD16b-NA1 (FcgRIIIb-NA1), and CD16B-NA2 (FcgRIIIb-NA2). BLI experiments were performed on a Fortebio Octet RED instrument (Pall, Fortebio) at 25° C. in 10 mM NaPO4, 130 mM NaCl, 0.05% p20 (PBS-T) pH 7.1. […]

[3] = test system: hCD32a-H131, hCD32a-R131, hCD32b, hCD16a-V158, hCD64; test: BLI (Fortebio Octet) binding of FcgR analytes to antibodies captured from supernatants; design: species or system human
Protocol: The binding of antibodies to Fc gamma receptors (FcγRs or FcgRs) was studied using biosensor technologies including Biacore surface plasmon resonance (SPR) and Fortebio Biolayer Interferometry (BLI). SPR studies were performed on a Biacore T100 instrument (GE Healthcare) at 25° C. The Fab fragment from a murine anti-6×His antibody was immobilized on a CM5 sensor chip using EDC/NHS to a density of ˜3000 RU. Various his-tagged FcgRs (7 ug/ml) were captured via the C-terminal his-tag using a contact time of 30 s at 10 ul/min, and the binding of 1.0 μM antibody was evaluated in a running buffer of 10 mM NaPO4, 130 mM NaCl, 0.05% p20 (PBS-T) pH 7.1. FcgRs used for these experiments included CD64 (FcgRI), CD32a-H131 (FcgRIIa-H131), CD32a-R131 (FcgRIIa-R131), CD32b (FcgRIIb), CD16a-V158 (FcgRIIIa-V158), CD16b-NA1 (FcgRIIIb-NA1), and CD16B-NA2 (FcgRIIIb-NA2). BLI experiments were performed on a Fortebio Octet RED instrument (Pall, Fortebio) at 25° C. in 10 mM NaPO4, 130 mM NaCl, 0.05% p20 (PBS-T) pH 7.1. Antibodies were captured out of undiluted expression supernatants on protein A coated sensors, followed by the binding of 1 μM hCD32a-H131, hCD32a-R131, hCD32b, hCD16a-V158, or 0.1 μM hCD64 analytes.
The next set of constructs was used to engineer effector function into the otherwise effector function negative IgG2 isotype. […]

[4] = Differential scanning calorimetry, thermal stability of CD73 mAbs; assay type: physicochemical; settings: PBS pH 7.1
Protocol: The thermal stability of CD73 mAbs were determined using a MicroCal Capillary DSC instrument (GE Healthcare). Antibodies were analyzed at a concentrations of 0.5-0.75 mg/ml in PBS pH 7.1. To stabilize the DSC instrument baseline and obtain a consistent thermal history, multiple scans of buffer alone in both the sample and reference cell were recorded prior to sample analysis. Sample scans contained mAb in the sample cell and PBS pH 7.1 in the reference cell. All scans were run from 10-110° C. at a scan rate of 60°/hr using a 5 minute pre-cycle thermostat period and no post-cycle thermostat period. Data (as shown in Table 15 below) were analyzed using MicroCal Origin Cap DSC analysis software. The appropriate buffer-buffer blank scans were subtracted from the sample-buffer data, and the transition midpoint temperature (Tm) values were determined by fitting the data to a non-2-state model. Tm1, Tm2 and Tm3 are the Tms for different domains in the antibodies.

[5] = molecular target: T2, CD73 on NCI-H292 cells (Homo sapiens, UniProt P21589); test: Flow cytometry based cross-blocking on NCI-H292 cells; assay type: binding; settings: FITC-labeled 11F11, 10 ug/mL
T2 construct: maintenance of downregulation of endogenous CD73; endogenous in cells; host or cells: NCI-H292
T2 sequence (P21589 27-549): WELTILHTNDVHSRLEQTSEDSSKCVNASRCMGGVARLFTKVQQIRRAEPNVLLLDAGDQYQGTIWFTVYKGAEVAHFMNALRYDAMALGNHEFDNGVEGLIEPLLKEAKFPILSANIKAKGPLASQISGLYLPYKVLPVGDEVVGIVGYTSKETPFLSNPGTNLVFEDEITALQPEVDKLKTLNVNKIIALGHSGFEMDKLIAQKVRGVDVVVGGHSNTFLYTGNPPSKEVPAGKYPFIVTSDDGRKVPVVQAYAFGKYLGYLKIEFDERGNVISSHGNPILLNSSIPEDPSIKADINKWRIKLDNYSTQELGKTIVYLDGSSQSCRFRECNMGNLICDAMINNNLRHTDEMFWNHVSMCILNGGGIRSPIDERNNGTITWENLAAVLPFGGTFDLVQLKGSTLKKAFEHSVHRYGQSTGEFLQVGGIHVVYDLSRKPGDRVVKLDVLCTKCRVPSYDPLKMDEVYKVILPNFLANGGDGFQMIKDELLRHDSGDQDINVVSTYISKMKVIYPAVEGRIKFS
Protocol: The antibodies were also subjected to flow cytometry based cross-blocking. The experiment was conducted as follows using one set of labeled fluorescently labeled antibody and a second set of unlabeled antibody: 100000 NCI-H292 cells were seeded per well. The plate was spun down and the cells were resuspended in 100 uL 2% FBS in PBS per well. The cells were blocked on ice for 20 min. Unlabeled antibody, as indicated, in 2% FBS in PBS was added to each well. […] 6 wells of cells were incubated without antibody, and were resuspended in 100 uL 2% FBS in PBS only (for controls). The cells were then incubated on ice for 30 min. The cells were washed twice with 2% FBS in PBS and the samples were resuspended in 140 uL 2% FBS in PBS, and analyzed on a FacsCalibur flow cytometer (Becton Dickinson).

Nc1ncnc2c1ncn2[C@@H]1O[C@H](COP(=O)(O)CP(=O)(O)O)[C@@H](O)[C@H]1O [APCP]
Ymax [1]: 97%

B1: IgG2.3G1-AY-V27: IgG2.3G1-AY with S267E (protein)
chain: ASTKGPSVFPLAPCSRSTSESTAALGCLVKDYFPEPVTVSWNSGALTSGVHTFPAVLQSSGLYSLSSVVTVPSSNFGTQTYTCNVDHKPSNTKVDKTVERKSCVECPPCPAPELLGGPSVFLFPPKPKDTLMISRTPEVTCVVVDVEHEDPEVKFNWYVDGVEVHNAKTKPREEQYNSTYRVVSVLTVLHQDWLNGKEYKCKVSNKALPAPIEKTISKAKGQPREPQVYTLPPSREEMTKNQVSLTCLVKGFYPSDIAVEWESNGQPENNYKTTPPVLDSDGSFFLYSKLTVDKSRWQQGNVFSCSVMHEALHNHYTQKSLSLSPGK
modifications: Synthetic: IgG2.3G1-AY-V27
notes: IgG2.3G1-AY with S267E
FcgR binding properties (SPR) [2]: comparable FcgR binding properties to IgG1f and IgG1f-S267E

B2: IgG2.5G1-AY-V27: IgG2-B-form variant (C131S) hybrid with IgG1f, V27 (protein)
constant: ASTKGPSVFPLAPSSRSTSESTAALGCLVKDYFPEPVTVSWNSGALTSGVHTFPAVLQSSGLYSLSSVVTVPSSNFGTQTYTCNVDHKPSNTKVDKTVERKCCVECPPCPAPELLGGPSVFLFPPKPKDTLMISRTPEVTCVVVDVEHEDPEVKFNWYVDGVEVHNAKTKPREEQYNSTYRVVSVLTVLHQDWLNGKEYKCKVSNKALPAPIEKTISKAKGQPREPQVYTLPPSREEMTKNQVSLTCLVKGFYPSDIAVEWESNGQPENNYKTTPPVLDSDGSFFLYSKLTVDKSRWQQGNVFSCSVMHEALHNHYTQKSLSLSPGK
modifications: left off: another chain or arm of the molecule
FcgR binding properties (SPR) [2]: IgG1f or modified IgG1f like effector functions

B3: IgG2.3: antibody with IgG2 constant region with C219S (protein)
constant: ASTKGPSVFPLAPCSRSTSESTAALGCLVKDYFPEPVTVSWNSGALTSGVHTFPAVLQSSGLYSLSSVVTVPSSNFGTQTYTCNVDHKPSNTKVDKTVERKSCVECPPCPAPPVAGPSVFLFPPKPKDTLMISRTPEVTCVVVDVSHEDPEVQFNWYVDGVEVHNAKTKPREEQFNSTFRVVSVLTVVHQDWLNGKEYKCKVSNKGLPAPIEKTISKTKGQPREPQVYTLPPSREEMTKNQVSLTCLVKGFYPSDIAVEWESNGQPENNYKTTPPMLDSDGSFFLYSKLTVDKSRWQQGNVFSCSVMHEALHNHYTQKSLSLSPGK
modifications: left off: another chain or arm of the molecule
notes: antibody with IgG2 constant region with C219S
FcgR binding properties (BLI, supernatants) [3]: appreciable binding to only CD32a-H131

B4: 7A11: human anti-CD73 mAb, IgG1za, VK1; VH SEQ ID NO: 88, VL SEQ ID NO: 92 (antibody, V domains shown)
VH: EVQLVESGGGLVQTGRSLRLSCAASGFTFDDYAMHWVRQAPGKGLEWVSDISWNSDIIGYADSVKGRFTISRDNAKNSLYLQMNSLRAEDTALYYCAKDIYGSGSSFFDYWGQGILVTVSS
VL: DIQMTQSPSSLSASVGDRVTITCRASQYISSWLAWYQQKPEKAPKSLIYAASSLQSGVPSRFSGSGSGTDFTLTISSLQPEDFATYYCQQYHSYPPTFGQGTRLEIK
modifications: Synthetic: 7A11 VH; Synthetic: 7A11 VK1
DSC Tm1 (oC) [4]: 64.8 oC | DSC Tm2 (oC) [4]: 70.2 oC | DSC Tm3 (oC) [4]: 82.8 oC | DSC Tonset (oC) [4]: 56.0 oC | competition with 11F11 [5]: competes with 11F11
